# Reference: article PMC12120875
# Target: VqERF1B-mCherry (Vitis quinquangularis accession 'Danfeng-2')
# Test: FRET or BRET
substance,measurement,value
VqERF062-GFP (natural protein),FRET efficiency,32%
